In the supplement of paper PMC7125110:
± gives the standard error. For part of these data: This sample holds only a part of the variants without activity.

B1: glmS ribozyme (parent)
chain: AUAAAAGCGCCAGAACUACAGAAAUGUAGUUGACGAGGAGGAGGUUUAUCGAAUUUUCGGCGGAUGCCUCCAAA

Assays:
Details in all cases: with glucosamine-6-phosphate
[1] = variants of: B1; experiment: kcat; higher = faster cleavage; RNA array
Outline: (§1)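 Over ~14 h at 37 °C, tiles were imaged as glucosamine-6-phosphate (40 μM to 10 mM) in HEPES/KCl/Mg(OAc)2 buffer flowed across sequenced MiSeq chips. The chips carried barcoded ribozyme variants transcribed in situ by E. coli RNA polymerase and tracked with a hybridised Cy3 probe. After normalisation to baseline and to non-cleaving reference variants, one- or two-exponential decay fits of per-tile medians gave kobs. kcat and KM followed from weighted Michaelis–Menten fits across concentrations.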

[2] = variants of: B1; experiment: KM; higher = weaker cofactor use; RNA array
Outline: as §1

[3] = variants of: B1; experiment: self-cleavage kobs at 40 uM GlcN6P; higher = faster cleavage; RNA array
Outline: as §1

[4] = variants of: B1; experiment: self-cleavage kobs at 160 uM GlcN6P; higher = faster cleavage; RNA array
Outline: as §1

[5] = variants of: B1; experiment: self-cleavage kobs at 640 uM GlcN6P; higher = faster cleavage; RNA array
Outline: as §1

[6] = variants of: B1; experiment: self-cleavage kobs at 2500 uM GlcN6P; higher = faster cleavage; RNA array
Outline: as §1

[7] = variants of: B1; experiment: self-cleavage kobs at 10000 uM GlcN6P; higher = faster cleavage; RNA array
Outline: as §1

Variant	kcat [1]	KM [2]	self-cleavage kobs at 40 uM GlcN6P [3]	self-cleavage kobs at 160 uM GlcN6P [4]	self-cleavage kobs at 640 uM GlcN6P [5]	self-cleavage kobs at 2500 uM GlcN6P [6]	self-cleavage kobs at 10000 uM GlcN6P [7]
AUAAAAGCGCCAGAACUACAGAAAUGUAGUUGACGAGGAGGAGGUGUAUCGAAUUUUCGGCGGAUGCUUCCAAA [U46G C68U]	0.00128 ± 0.00018 s⁻¹	1170 ± 300 µM	5.92e-05 ± 9.5e-06 s⁻¹	0.000148 ± 2.3e-05 s⁻¹	0.000378 ± 5.2e-05 s⁻¹	0.00102 ± 0.00018 s⁻¹	0.00116 ± 0.00011 s⁻¹
AUAAAAGCGCCAGAACUACAGAAAUGUAGUUGACGAGGAGGAGGUUAAUCGAAAUUUCGGCGGAUGCCUCCAAA [U47A U54A]	0.0235 ± 0.0067 s⁻¹	1820 ± 700 µM	0.000584 ± 0.00012 s⁻¹	0.00186 ± 0.00037 s⁻¹	0.00587 ± 0.001 s⁻¹	0.0118 ± 0.0025 s⁻¹	0.0314 ± 0.0084 s⁻¹
AUAAAAGCGCCAGAACUACAGAAAUGUAGUUGACGAGGAGGAGGUUAAUCGAAUUUUCGGCGGAUGCCUCCAAA [U47A]	0.0447 ± 0.0064 s⁻¹	2150 ± 360 µM	0.00084 ± 1.5e-05 s⁻¹	0.00266 ± 0.00018 s⁻¹	0.00994 ± 0.00044 s⁻¹	0.0201 ± 0.0011 s⁻¹	0.0412 ± 0.0016 s⁻¹
AUAAAAGCGCCAGAACUACAGAAAUGUAGUUGACGAGGAGGAGGUUAAUCGAAUUUUCGGCGGAUGCCUCAAAA [U47A C71A]	0.00195 ± 0.00046 s⁻¹	1020 ± 320 µM	6.97e-05 ± 1.4e-05 s⁻¹	0.000253 ± 6.8e-05 s⁻¹	0.00117 ± 0.00028 s⁻¹	0.00138 ± 0.00038 s⁻¹	0.00153 ± 0.00055 s⁻¹
AUAAAAGCGCCAGAACUACAGAAAUGUAGUUGACGAGGAGGAGGUUAAUCGAAUUUUCUGCGGAUGCCUCCAAA [U47A G59U]	5.89e-05 ± 1.5e-06 s⁻¹						
AUAAAAGCGCCAGAACUACAGAAAUGUAGUUGACGAGGAGGAGGUUAAUCGAAUUUUCGGUGGAUGCCUCCAAA [U47A C61U]	2.03e-05 ± 6.6e-06 s⁻¹		< 1e-05 s⁻¹				
AUAAAAGCGCCAGAACUACAGAAAUGUAGUUGACGAGGAGGAGGUGUAUCGAAUUCUCGGCGGAUGCCUCCAAA [U46G U56C]	0.00203 ± 0.0005 s⁻¹	4990 ± 2300 µM		4.23e-05 ± 2.1e-05 s⁻¹		0.000799 ± 0.00013 s⁻¹	0.00131 ± 0.00016 s⁻¹
AUAAAAGCGCCAGAACUACAGAAAUGUAGUUGACGAGGAGGAGGUGUAUCGAAUUGUCGGCGGAUGCCUCCAAA [U46G U56G]	0.00393 ± 0.00066 s⁻¹	1690 ± 350 µM	8.55e-05 ± 1.5e-05 s⁻¹	0.000353 ± 0.00012 s⁻¹	0.00128 ± 0.00033 s⁻¹	0.00271 ± 0.00083 s⁻¹	0.0029 ± 0.001 s⁻¹
AUAAAAGCGCCAGAACUACAGAAAUGUAGUUGACGAGGAGGAGGUGUAUCGAAUUUUCGGCGGAUGCCGCCAAA [U46G U69G]	7.96e-05 ± 5.9e-06 s⁻¹		5.51e-05 ± 9.4e-06 s⁻¹	7.35e-05 ± 1.7e-05 s⁻¹	0.000111 ± 1.6e-05 s⁻¹	7.44e-05 ± 1.1e-05 s⁻¹	7.71e-05 ± 5.3e-06 s⁻¹
AUAAAAGCGCCAGAACUACAGAAAUGUAGUUGACGAGGAGGAGGUGUAUCGAAUAUUCGGCGGAUGCCUCCAAA [U46G U55A]	0.0163 ± 0.0061 s⁻¹		0.000166 ± 3.9e-05 s⁻¹		0.0028 ± 0.00069 s⁻¹	0.00456 ± 0.0013 s⁻¹	0.0133 ± 0.0027 s⁻¹
AUAAAAGCGCCAGAACUACAGAAAUGUAGUUGACGAGGAGGAGGUGUAUCGAAUGUUCGGCGGAUGCCUCCAAA [U46G U55G]	0.00623 ± 0.0016 s⁻¹	2040 ± 690 µM	0.000153 ± 2.1e-05 s⁻¹	0.000395 ± 8.6e-05 s⁻¹	0.00125 ± 0.00021 s⁻¹	0.00414 ± 0.001 s⁻¹	0.00533 ± 0.00091 s⁻¹
AUAAAAGCGCCAGAACUACAGAAAUGUAGUUGACGAGGAGGAGGUGUAUCGAAUCUUCGGCGGAUGCCUCCAAA [U46G U55C]	0.0109 ± 0.0051 s⁻¹		0.000264 ± 3.5e-05 s⁻¹	0.000497 ± 5.4e-05 s⁻¹	0.00171 ± 0.00029 s⁻¹	0.00371 ± 0.00062 s⁻¹	0.0103 ± 0.0013 s⁻¹
AUAAAAGCGCCAGAACUACAGAAAUGUAGUUGACGAGGAGGAGGUGUAUCGAAUUUUCGGCGGAUGCCUGCAAA [U46G C70G]	0.00028 ± 2.1e-05 s⁻¹	192 ± 44 µM	4.54e-05 ± 1.1e-05 s⁻¹	0.000122 ± 1.7e-05 s⁻¹	0.000265 ± 3.3e-05 s⁻¹	0.000263 ± 3.4e-05 s⁻¹	0.000258 ± 2.6e-05 s⁻¹
AUAAAAGCGCCAGAACUACAGAAAUGUAGUUGACGAGGAGGAGGUUAAUCGAAUUUUCGGCGGAUGCCUGCAAA [U47A C70G]	0.000131 ± 1.7e-05 s⁻¹			9.75e-05 ± 2.2e-05 s⁻¹	0.00011 ± 1.3e-05 s⁻¹		0.000128 ± 2.5e-05 s⁻¹
